For assay [1], the target named is T1, H2C-scFv-LH (human).
T1 construct: also called control antibody H2C-scFv-LH; parent antibody
The assay can be described thus: SPR (Biacore T200), antigen amine-coupled to about 75 RU, antibody 4 and 20 nM, 1:1 Langmuir fit. As to the method: Protein coupling: The huCD3E-AA1-27-huFc protein produced in example 1.2 was diluted to 5.8 μg/mL with an NaAc buffer at pH 4.5. The flow rate was set to 10 μL/min. The chip was activated with a mixture of 1-ethyl-(3-dimethylaminopropyl)carbodiimide (EDC) and N-hydroxysuccinimide (NHS) for the default time of 420 s. The antigen protein huCD3E AA1-27-huFc was immobilized to a level of approximately 75 RU using a coupling mode with a preset coupling amount. The activated groups not bound to the test sample were blocked with ethanolamine.
Sample test condition: A PBS buffer (pH 7.4) containing 0.05% Tween-20 was used as a running buffer, and the running buffer was used as a control antibody test sample. A series of antibody concentrations (4 nM, 20 nM) were set. During sample analysis, the flow rate was set to 30 μL/min, the binding time was 180 s, and the dissociation time was 300 s. After dissociation was completed, regeneration was performed with 10 mM Gly-HCl (pH 2.0) for 20 s to completely remove antibody bound to the antigen.
Parameter fitting: The experiment was run in multiple cycles, with the response signal plotted against analysis time on the abscissa and response value on the ordinate. After dual-reference subtraction, the obtained data were fitted by BIAcore T200 analysis software. The fitting model used was a 1:1 Langmuir binding model, so as to determine affinity indicators such as the binding dissociation constant.

The next assay deals with T2, 63-scFv-LH (human).
T2 construct: scFv-Fc
The assay can be described thus: BLI (Gator), biotinylated antigen on SA probe, antibody 0.62-40 nM. As to the method: (§1) Protein biotinylation: The antigen protein huCD3E AA1-27-huFc was diluted to a final concentration of 1 mg/mL, premixed with biotin and reacted at 4° C. for 1 h, and then unreacted free biotin was removed by filtration with an ultrafiltration tube to obtain biotinylated huCD3E AA1-27-huFc (hereinafter referred to as huCD3E-AA1-27-huFc-Biotin).
(§2) In the dark, the sensor was pre-wetted with Q Buffer (SA Probes, ProbeLife). After 10 min, the sample plate (Greiner, 655209) was tested. After the test was correct, the preset procedure was followed. First, antigen binding was performed for 600 s. After the binding was completed and equilibration was continued in Q Buffer for 30 s, the sensor bound to the antigen huCD3E-AA1-27-huFc-Biotin was transferred to different concentrations of antibody dilutions for binding for 120 s, and then transferred to Q Buffer for dissociation for 180 s. Finally, KD, Ka and Kd were obtained by fitting the binding and dissociation data of different concentrations of antigens and antibodies.

For assay [2], the target named is T1, H2C-scFv-LH. Described as above. As to the method:
as §1, §2

The next assay has as its target T3, 79-scFv-LH (human).
T3 construct: scFv-Fc
The description is as above. As to the method: as §1, §2

The term Kd denotes a measure of binding affinity in units of concentration. What is called koff is the first-order rate constant of dissociation. The low end stands for slow dissociation, the high end for fast dissociation. Usually kon stands for the rate constant with which the complex forms. The low end stands for slow association, the high end for fast association.

B1: huCD3E-AA1-27-huFc (Fc fusion)
chain: QDGNEEMGGITQTPYKVSISGTTVILTTHTCPPCPAPELLGGPSVFLFPPKPKDTLMISRTPEVTCVVVDVSHEDPQVKFNWYVDGVQVHNAKTKPREQQYNSTYRVVSVLTVLHQNWLDGKEYKCKVSNKALPAPIEKTISKAKGQPREPQVYTLPPSREEMTKNQVSLTCLVKGFYPSDIAVEWESNGQPENNYKTTPPVLDSDGSFFLYSKLTVDKSRWQQGNVFSCSVMHEALHNHYTQKSLSLSPGK
notes: Made in HEK293 cells, purified on Protein A/G. No linker between the two parts is mentioned; also called antigen protein
Turning to B1, in the assay with H2C-scFv-LH [1], the Kd came out at 0.0596 nM, the koff was determined as 0.000165 s⁻¹ and the association rate constant (kon) stood at 2.77e+06 M⁻¹ s⁻¹.

B2: huCD3E-AA1-27-huFc-Biotin (Fc fusion)
chain: QDGNEEMGGITQTPYKVSISGTTVILTTHTCPPCPAPELLGGPSVFLFPPKPKDTLMISRTPEVTCVVVDVSHEDPQVKFNWYVDGVQVHNAKTKPREQQYNSTYRVVSVLTVLHQNWLDGKEYKCKVSNKALPAPIEKTISKAKGQPREPQVYTLPPSREEMTKNQVSLTCLVKGFYPSDIAVEWESNGQPENNYKTTPPVLDSDGSFFLYSKLTVDKSRWQQGNVFSCSVMHEALHNHYTQKSLSLSPGK
modifications: biotinylated (sites not given)
notes: also called biotinylated huCD3E AA1-27-huFc
With B2, in the assay with 63-scFv-LH, the Kd stood at 0.358 nM, the koff worked out at 0.000428 s⁻¹ and the kon is 1.19e+06 M⁻¹ s⁻¹. Also, in the assay with H2C-scFv-LH [2], the Kd was 0.318 nM, the koff was 0.000327 s⁻¹ and the kon was determined as 1.03e+06 M⁻¹ s⁻¹. Besides, in the assay with 79-scFv-LH, the affinity, expressed as Kd, was 0.222 nM; the koff amounted to 0.000184 s⁻¹; the kon is 826000 M⁻¹ s⁻¹.

The values above are taken from patent US20260242472A1 (SANYOU BIOPHARMACEUTICALS, published 2026).
